Laboratory results published in US20220275088A1 (published 2022).
Blank lines part the entries; values can stand above or below the binder they belong to.

Tests used:
Cyno PD1 = test: flow cytometry
[1] = biological target: T1, soluble PD-1 (biotinylated PD-1; expi293 expressed soluble PD1-avi) (UniProt Q15116 25-170, biotinylated (Avidity's biotinylation kit, avi tag) where loaded on SA sensors or used to stain yeast); test: yeast display flow cytometry
[2] = biological target: human PD-1 on cells (transfected Expi293 cells, PHA-cultured T cells, cells of the Promega PD1-PDL1 bioassay, … (UniProt Q15116 25-288)); test: flow cytometry
human PD-1 on cells (transfected Expi293 cells, PHA-cultured T cells, cells of the Promega PD1-PDL1 bioassay, …, sequence (Q15116 25-288): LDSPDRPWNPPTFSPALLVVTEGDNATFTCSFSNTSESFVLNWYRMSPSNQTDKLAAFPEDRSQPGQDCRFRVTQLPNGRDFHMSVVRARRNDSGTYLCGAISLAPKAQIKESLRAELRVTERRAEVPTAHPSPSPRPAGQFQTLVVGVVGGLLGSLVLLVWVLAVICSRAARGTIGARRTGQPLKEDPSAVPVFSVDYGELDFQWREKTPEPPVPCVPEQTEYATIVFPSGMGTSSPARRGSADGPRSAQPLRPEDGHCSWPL

[3] = biological target: T1, soluble PD-1 (biotinylated PD-1; …); test: ELISA; constant antigen coating
[4] = biological target: T1, soluble PD-1 (biotinylated PD-1; …); test: ELISA; variable antigen coating

T1 sequence (Q15116 25-170): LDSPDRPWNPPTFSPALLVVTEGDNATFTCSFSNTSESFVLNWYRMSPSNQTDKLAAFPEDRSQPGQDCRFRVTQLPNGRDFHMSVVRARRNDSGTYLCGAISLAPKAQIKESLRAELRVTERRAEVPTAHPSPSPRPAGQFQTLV

- EC50 (Cyno PD1): 0.072 µg/mL
B1: P4#B3 (Fc fusion)
VH: QVQLVQSGGGLVQPGRSLRLSCAASGFTFDDYAMHWVRQAPGKGLEWVSGISWNSGSIGYADSVKGRFTVSRDNAKNSLYLQMNSLRAEDTAVYYCASDYGDKYYYYGMDVWGKGTTVTVSS
VL: QPGLTQPPSASGTPGQRVTISCSGSSSNIGSNTVNWYQQFPGKAPKLLIFNDNQRPSGVPDRFSASKSGTSASLAISGLQSEDEADYYCAAWDGGLNGRGVFGGGTKLTVL

- EC50 [1]: 101 nM
B2: P4-B3 scFv (scFv, V domains shown)
VH: QVQLVQSGGGLVQPGRSLRLSCAASGFTFDDYAMHWVRQAPGKGLEWVSGISWNSGSIGYADSVKGRFTVSRDNAKNSLYLQMNSLRAEDTAVYYCASDYGDKYYYYGMDVWGKGTTVTVSS
VL: QPGLTQPPSASGTPGQRVTISCSGSSSNIGSNTVNWYQQFPGKAPKLLIFNDNQRPSGVPDRFSASKSGTSASLAISGLQSEDEADYYCAAWDGGLNGRGVFGGGTKLTVL

- EC50 [2]: 0.097 µg/mL
B3: P4-B3 minibody (scFv-Fc) (Fc fusion)
VH: QVQLVQSGGGLVQPGRSLRLSCAASGFTFDDYAMHWVRQAPGKGLEWVSGISWNSGSIGYADSVKGRFTVSRDNAKNSLYLQMNSLRAEDTAVYYCASDYGDKYYYYGMDVWGKGTTVTVSS
VL: QPGLTQPPSASGTPGQRVTISCSGSSSNIGSNTVNWYQQFPGKAPKLLIFNDNQRPSGVPDRFSASKSGTSASLAISGLQSEDEADYYCAAWDGGLNGRGVFGGGTKLTVL

- EC50 [3]: 0.0407 µg/mL
- EC50 [4]: 0.514 µg/mL
B4: P4-B3 IgG1 wild type monomer (antibody, V domains shown)
VH: QVQLVQSGGGLVQPGRSLRLSCAASGFTFDDYAMHWVRQAPGKGLEWVSGISWNSGSIGYADSVKGRFTVSRDNAKNSLYLQMNSLRAEDTAVYYCASDYGDKYYYYGMDVWGKGTTVTVSS
VL: QPGLTQPPSASGTPGQRVTISCSGSSSNIGSNTVNWYQQFPGKAPKLLIFNDNQRPSGVPDRFSASKSGTSASLAISGLQSEDEADYYCAAWDGGLNGRGVFGGGTKLTVLG
